Target: T1, Abp1 SH3 (ABP1_YEAST), P15891
T1 chain: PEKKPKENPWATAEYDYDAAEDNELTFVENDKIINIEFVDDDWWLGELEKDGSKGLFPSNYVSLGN
Experiment: SPOT array

Binder	normalised SPOT signal, Boehringer light units (BLU); mean over the file's lines of this peptide
QPPTGILPLAPLRP [YPL085W 911-924]	63.4
PVFVTDYPRLSKP [YCR024C 376-388]	93.5
QDFKSPLENDPNRP [YPL188W 113-126]	41.4
QSMISTRSTPPARP [YHR073W 189-202]	3390
QAHVQTNPQVPKP [YPR129W 112-124]	0
QMQIPKYENKPFKP [YBR073W 34-47]	316
PVTMRVHPKNGKP [YLR304C 734-746]	1700
QMFLSIQPQEARP [YPL125W 1020-1032]	310
QPTERDEYKQPFKP [YPR175W 148-161]	19.8
QKNYVYGRQDPKKP [YNL137C 407-420]	147
PVPELDIKQGPVRP [YDL095W 15-28]	183
QILLPTNPTLDKP [YNR010W 13-25]	135
QDKRNLRSNAPTKP [YLR263W 598-611]	67.5
QLPNPAMPLLHRP [YER169W 386-398]	160
PTTSIGFPALEKP [YLL022C 355-367]	49.2
QRKSLRRPTLSKP [YOR264W 128-140]	43
QEAVNSSPSEFRP [YOR299W 396-408]	165
QNSERAAQEFPNKP [YGR116W 858-871]	75.2
QQEQNTPPLPPKP [YCL008C 172-184]	16.1
QDYGSISPSNIRP [YER132C 1035-1047]	0

Binder	normalised SPOT signal, Boehringer light units (BLU); mean over the file's lines of this peptide
QIIETPYPPTQKP [YJL208C 31-43]	55
QSTPQTMRQAPKRP [YNL298W 490-503]	7180
QTATTLSPAKARP [YOR178C 4-16]	122
QHNTSSSRRGPGRP [YDR310C 197-210]	579
QFMSAGLPQVAKP [YLR304C 105-117]	140
QIGSVATSGIPARP [YLR138W 520-533]	66.6
QSSTTTAAATPTKP [YHL004W 115-128]	160
QKNVIHRAARPTRP [YLR029C 32-45]	253
QEENKLEESVPTKP [YIL072W 279-292]	88
QIREDQQEVPPQRP [YMR160W 21-34]	74.4
QISWNGIPKIHRP [YOR070C 275-287]	1750
PVFMAIKQHSPDKP [YGR271W 1358-1371]	790
QGLKLTVPKKIKP [YHR031C 197-209]	1000
PYTAKGAPIISKP [YOL061W 103-115]	127
PYNYLQRPFIVKP [YML113W 199-211]	206
PVIMWVPSMYPVKP [YCL008C 82-95]	94.4
QLQKKNDRPSPLKP [YKL101W 857-870]	347
QAPSMGIPQQNRP [YOR181W 300-312]	117
QEDPISNFLPPPKP [YBR108W 580-593]	114
QLDMDMYPYKLKP [YLR375W 257-269]	57.3

Binder	normalised SPOT signal, Boehringer light units (BLU); mean over the file's lines of this peptide
QRALAKDLIVPRRP [YGL099W 127-140]	42100
QEYGGQKPELSKP [YHL032C 439-451]	58.1
QNDLPTGYYEPMKP [YLL016W 403-416]	15.1
QSTKKAPPPVVKP [YBR108W 772-784]	4860
QLTTEVWRKVPMKP [YCR032W 1846-1859]	897
QQVPMPILQQPNRP [YNL278W 947-960]	113
QMVYIVDPSKRRP [YHR196W 194-206]	445
QFRDDSLPPKSKP [YIL091C 357-369]	196
PVSSRKAVEPPRKP [YDR464W 340-353]	479
QEQQNKAPEKPKP [YGL105W 194-206]	46.6
QLRNELIKQGPKRP [YMR072W 33-46]	212
QLATSLYPDIYKP [YFL007W 1286-1298]	86.3
QNLPRHDADFPPRP [YHR030C 429-442]	22
QFIKAGVPIGRKP [YGR112W 321-333]	7910
QPVIVNTPHLKKP [YHR064C 433-445]	83.3
QRGQQGYPRQPQRP [YDR171W 23-36]	333
QSQLTSIAAVPPKP [YDL030W 480-493]	92.9
QRFNNSNNSIPRKP [YPL032C 537-550]	627
